From patent US20040234990A1, “Method of screening alzheimer's disease-associated gene” (priority 2001, published 2004)

B1: Protein A: human cDNA (Genbank AAH06223, SEQ ID NO: 4) encoding Protein A (SEQ ID NO: 1), function unknown (nucleic acid)
DNA: ATGTCGACGGCGGCGGTTCCGGAGCTGAAGCAGATCAGCCGGGTGGAGGCGATGCGCCTAGGGCCGGGCTGGAGCCACTCGTGCCACGCCATGCTGTACGCCGCCAACCCTGGGCAGCTCTTCGGCCGCATCCCCATGCGCTTCTCGGTGCTGATGCAGATGCGTTTCGACGGGCTGCTGGGCTTCCCCGGGGGCTTCGTGGACCGGCGCTTCTGGTCGCTGGAGGACGGCCTGAACCGGGTGCTGGGCCTGGGCCTGGGCTGCCTGCGCCTCACCGAGGCCGACTACCTGAGCTCGCACCTGACCGAGGGCCCACACCGCGTCGTGGCGCACCTGTACGCGCGGCAGCTGACGCTGGAGCAGCTGCACGCCGTGGAGATCAGCGCGGTGCACTCGCGCGACCACGGCCTGGAGGTGCTGGGCCTCGTGCGGGTCCCGCTGTACACCCAGAAGGACCGAGTCGGAGGCTTCCCCAACTTCCTGAGCAACGCCTTCGTGAGCACGGCTAAGTGCCAGCTCCTCTTTGCCCTCAAGGTGCTCAACATGATGCCCGAGGAGAAGCTGGTTGAGGCCCTGGCTGCAGCCACCGAGAAGCAGAAGAAGGCCCTGGAGAAGTTGCTCCCGGCCTCCTCT
modifications: Human

Key:
[1] = tested on: A5-9 cells; experiment: Puromycin sensitivity of the parent strain; type: cell-based, mouse
Text: (§1) The DNA that controls the production of Aβ is investigated as follows. First, the DNA library is transfected to the cell line where the two recombinant gene constructs described above are introduced (hereinafter referred to as the parent strain). Thereafter, for example, when a drug resistant gene is used as the selection marker, a cell bearing the DNA to enhance the concentration of the corresponding drug and become resistant in the presence of the drug even at a high concentration is selected. […]
(§2) The A5-9 cells or A5-9-PS1 cells described in EXAMPLE 4, to which the human hippocampus cDNA library was transfected through the infection with retrovirus, were cultured in the presence of puromycin of a high concentration (A5-9 cells, 25 μg/ml; A5-9-PS1 cells, 9 μg/ml). […] The concentrations of puromycin used were determined based on the respective minimum puromycin concentrations of 20 μg/ml and 5 μg/ml, at which the A5-9 cells and A5-9-PS1 cells as the parent strain were extinct. […] That is, Aβ was detected as follows. The Aβ secreted in a medium by incubation for 3 days (initial cell concentration of 2×10^5 cells/ml, medium of 3 ml) was immunoprecipitated by anti-Aβ monoclonal antibody 6E10 and the deposits were detected by high sensitive western blotting using anti-Aβ antibody. […]

[2] = tested on: A5-9-PS1 cells; experiment: Puromycin sensitivity of the parent strain; type: cell-based, mouse
Text: as §1, §2

[3] = tested on: HEK293 cells where APP and PS1 were overexpressed; experiment: Aβ secreted into the medium by HEK293 cells transfected with cDNA in pcDNA3, assayed by ELISA; type: cell-based; settings: for Fold increase in Aβ42 versus vector control: rate of increase compared to vector-alone control
Text: From the clones selected in EXAMPLE 5 above to increase the production of Aβ, human hippocampus-derived cDNA was amplified by PCR using virus vector pMX sites as primers (which were identified to be sense strand primer, SEQ ID NO: 16; […] and antisense strand primer, SEQ ID NO: 17; […]). The cDNA obtained was ligated with vector pcDNA3 (Invitrogen, Inc.), which was transfected to 4×10^5 cells of HEK293 cells (Tomita S., et al., J. Biol. Chem. 273: 19304-19310, 1998; Tomita S., et al., J. Biol. Chem. 275: 13056-13060, 2000) where APP and PS1 were overexpressed. One day after, the medium was changed to a new medium followed by incubation for 24 hours. The amount of Aβ selected in the medium was assayed by ELISA (Asami-Odaka, A. et al., 34:10272, 1995). It was found so far that 3 kinds of human hippocampus-derived cDNAs increased the amount of Aβ produced (TABLE 2). One of them was identified to be identical with human cDNA (accession No. AAH06223) registered in Genbank. In the following procedures of the present invention, this cDNA was named gene A (SEQ ID NO: 4) and the protein encoding the cDNA was named Protein A (SEQ ID NO: 1). […] The one found to be a gene to control the production of Aβ was a protein, Herp (Kokame K. et al., J. Biol. Chem. 275: 3286, 2000; accession no. AB034989) (cDNA: SEQ ID NO: 5, protein: SEQ ID NO: 2), which was localized in the endoplasmic reticulum and its expression was induced by endoplasmic reticulum stress but its function was unknown. Further the other one found to be a gene to control the production of Aβ was cDNA (cDNA: SEQ ID NO: 6, protein: SEQ ID NO: 3) containing the 1-389 internal sequence from the N terminus of 5-lipoxygenase (accession no. XM 005818).

[4] = Aβ in medium after 24 hours incubation, mean of 2 samples, vector control value in parenthesis

Row | Molecule | minimum puromycin concentration at which the cells were extinct [1] | minimum puromycin concentration at which the cells were extinct [2] | Aβ40 Concentration [pM] [3, 4] | Aβ42 Concentration [pM] [3, 4] | Fold increase in Aβ42 versus vector control ([3]; column beside the Aβ40 concentration) | Fold increase in Aβ42 versus vector control ([3]; column beside the Aβ42 concentration)
1 | COc1ccc(C[C@H](N)C(=O)N[C@H]2[C@@H](O)[C@H](n3cnc4c(N(C)C)ncnc43)O[C@@H]2CO)cc1 [puromycin] | 20 µg/mL | 5 µg/mL |  |  |  | 
2 | B1 |  |  | 378 ± 10 (232 ± 34) pM | 88 ± 22 (45 ± 2) pM | 1.6 | 2.0
